Test results from US20050048477A1 (published 2005).

Key:
Gal80p [1] = target: T1, Gal80p (yeast, UniProt P04387 1-435); assay: cell-based or functional assay
T1 sequence (looked up): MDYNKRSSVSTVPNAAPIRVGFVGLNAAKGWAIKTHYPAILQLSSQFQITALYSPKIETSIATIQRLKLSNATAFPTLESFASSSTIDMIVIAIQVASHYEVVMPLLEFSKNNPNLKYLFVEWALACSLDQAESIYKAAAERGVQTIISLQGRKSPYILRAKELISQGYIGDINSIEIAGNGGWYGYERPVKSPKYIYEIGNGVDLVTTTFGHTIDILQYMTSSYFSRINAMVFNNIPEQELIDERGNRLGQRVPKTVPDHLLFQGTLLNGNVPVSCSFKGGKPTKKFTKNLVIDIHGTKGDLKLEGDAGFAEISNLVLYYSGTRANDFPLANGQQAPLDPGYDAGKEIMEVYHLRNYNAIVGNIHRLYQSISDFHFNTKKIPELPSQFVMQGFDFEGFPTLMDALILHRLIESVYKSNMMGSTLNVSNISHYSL

[2] = target: T2, myristoylated Gal3p (Myr-Gal3p) (yeast, UniProt P13045 1-520, limits assumed, N-myristoylation (acylation) at the N-terminal signal); assay: fluorescence microscopy of yeast Sc786 co-expressing Gal80-GFP and Myr-Gal3p, galactose induced
T2 construct: also called membrane-associated Gal3p
T2 sequence: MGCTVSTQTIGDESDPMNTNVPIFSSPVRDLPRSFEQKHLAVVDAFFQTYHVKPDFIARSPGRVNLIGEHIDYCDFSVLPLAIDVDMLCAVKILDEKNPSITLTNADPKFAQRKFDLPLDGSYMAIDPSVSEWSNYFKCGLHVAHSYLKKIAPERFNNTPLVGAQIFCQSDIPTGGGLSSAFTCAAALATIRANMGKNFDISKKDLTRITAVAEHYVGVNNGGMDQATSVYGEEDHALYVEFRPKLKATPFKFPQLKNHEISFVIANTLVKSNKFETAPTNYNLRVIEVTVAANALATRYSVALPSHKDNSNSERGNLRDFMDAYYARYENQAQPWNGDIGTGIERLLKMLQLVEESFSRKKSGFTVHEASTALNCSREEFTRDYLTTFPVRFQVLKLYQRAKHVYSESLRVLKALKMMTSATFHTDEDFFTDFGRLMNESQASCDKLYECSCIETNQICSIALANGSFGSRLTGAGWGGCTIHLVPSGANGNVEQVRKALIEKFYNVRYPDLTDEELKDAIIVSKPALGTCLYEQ

Gal80p [3] = target: T1, Gal80p; assay: membrane-tethered Gal4AD in yeast with a UASGAL-HIS3 reporter, growth without galactose
Description: FIG. 7. Membrane targeted transcriptional activation domain of Gal4p (Gal4AD; a.a. 758-881) activates HIS3 reporter gene expression. A yeast strain harboring a UASGAL-HIS3 reporter was transformed with Myr-Gal4AD. […] Transformed cells were spotted on synthetic medium plates lacking histidine, tryptophan and uracil and containing 3% glycerol/2% lactic acid as carbon source.

B1: wild type Gal3p (other, yeast, UniProt P13045 1-520, looked up)
chain: MNTNVPIFSSPVRDLPRSFEQKHLAVVDAFFQTYHVKPDFIARSPGRVNLIGEHIDYCDFSVLPLAIDVDMLCAVKILDEKNPSITLTNADPKFAQRKFDLPLDGSYMAIDPSVSEWSNYFKCGLHVAHSYLKKIAPERFNNTPLVGAQIFCQSDIPTGGGLSSAFTCAAALATIRANMGKNFDISKKDLTRITAVAEHYVGVNNGGMDQATSVYGEEDHALYVEFRPKLKATPFKFPQLKNHEISFVIANTLVKSNKFETAPTNYNLRVIEVTVAANALATRYSVALPSHKDNSNSERGNLRDFMDAYYARYENQAQPWNGDIGTGIERLLKMLQLVEESFSRKKSGFTVHEASTALNCSREEFTRDYLTTFPVRFQVLKLYQRAKHVYSESLRVLKALKMMTSATFHTDEDFFTDFGRLMNESQASCDKLYECSCIETNQICSIALANGSFGSRLTGAGWGGCTIHLVPSGANGNVEQVRKALIEKFYNVRYPDLTDEELKDAIIVSKPALGTCLYEQ
reduction in MEL1 gene expression level (Gal80p [1]): 2 fold

B2: Gal80-GFP (other, yeast, UniProt P04387 1-435, looked up)
chain: MDYNKRSSVSTVPNAAPIRVGFVGLNAAKGWAIKTHYPAILQLSSQFQITALYSPKIETSIATIQRLKLSNATAFPTLESFASSSTIDMIVIAIQVASHYEVVMPLLEFSKNNPNLKYLFVEWALACSLDQAESIYKAAAERGVQTIISLQGRKSPYILRAKELISQGYIGDINSIEIAGNGGWYGYERPVKSPKYIYEIGNGVDLVTTTFGHTIDILQYMTSSYFSRINAMVFNNIPEQELIDERGNRLGQRVPKTVPDHLLFQGTLLNGNVPVSCSFKGGKPTKKFTKNLVIDIHGTKGDLKLEGDAGFAEISNLVLYYSGTRANDFPLANGQQAPLDPGYDAGKEIMEVYHLRNYNAIVGNIHRLYQSISDFHFNTKKIPELPSQFVMQGFDFEGFPTLMDALILHRLIESVYKSNMMGSTLNVSNISHYSL
notes: Order of parts follows the name Gal80-GFP; also called Gal80p fused to green fluorescent protein; not shown: green fluorescent protein (GFP amplified from pYGFP1)
binding result [2]: binds

B3: Myr-Gal4AD (other, yeast)
chain: MGCTVSTQTIGDESDPPLTPSALFGGANFNQSGNIADSSLSFTFTNSSNGPNLITTQTNSQALSQPIASSNVHDNFMNNEITASKIDDGNNSKPLSPGWTDQTAYNAFGITTGMFNTTTMDDVYNYLFDDEDTPPNPKKE
modifications: N-myristoylation at the N-terminal signal
notes: range 758-881; also called membrane-localized Gal4AD
binding result (Gal80p [3]): binds
